{
  "source": "patent US20090202508A1",
  "about": "“NEGATIVE REGULATION OF HYPOXIA INDUCIBLE FACTOR 1 BY OS-9” (THE JOHNS HOPKINS UNIVERSITY, priority 2004, published 2009)",
  "key": {"HIF-1α [1]": {"system": "HIF-1α", "test": "HIF-1α protein levels by immunoblot in transfected 293 cells", "assay_type": "cell-based, human", "experimental": "(§1) 293 or Hep3B cells were seeded onto 24-well plates at 8×10^4 cells per well of a 24-well plate. The following day, the cells were transfected with plasmid DNAs using Fugene-6 (Roche) for 293 and Lipofectamine Plus (Invitrogen) for Hep3B cells. After 24 h, the cells were exposed to 20% or 1% O2 for 24 h. Cells were lysed, and the luciferase activities were determined by multi-well luminescence reader (PerkinElmer), using the Dual-Luciferase Reporter Assay System (Promega). For p2.1 reporter assay, cells were co-transfected with 15 ng of control reporter pSV-Renilla, 135 ng of HIF-1 reporter p2.1, and expression vector encoding HA-OS-9, HIF-1α, or empty vector. Unless indicated otherwise, 200 ng of HIF-1α, 400 ng of HA-OS-9, 1 ng of PHD2, or 1 ng of HIF-1α triple mutant P402A/P564A/N803A (HIF-1α TM) expression vector was used for co-transfection. For pGalA reporter assays, Hep3B cells were co-transfected with 12.5 ng of pSV-Renilla, reporter 200 ng of pG5ElbLuc, 100 ng of expression vector encoding the GAL4 DNA-binding domain alone or fused to HIF-1α residues 531-826 (Jiang et al. 1997) and empty vector or vector encoding HA-OS-9. For immunoblot assays, 293 cells were seeded at 3×10^6 cells per 10-cm plate. The following day, the cells were co-transfected with expression vectors using Fugene-6. After 24 h, the cells were exposed to 20% or 1% O2 with or without MG132 (10 μM) for 8 h and lysed in 200 μl of lysis buffer containing 50 mM Tris-Cl (pH 8.0), 150 mM NaCl, 5 mM EDTA, 0.1% SDS, 1% NP-40, 0.5% sodium deoxycholate, Complete protease inhibitor cocktail (Roche), sodium orthovanadate, and sodium vanadate (Sigma)."}, "HIF-1": {"system": "HIF-1", "test": "HIF-1-dependent p2.1 luciferase reporter assay", "assay_type": "cell-based, human", "experimental": "as §1"}, "HIF-1α [2]": {"system": "HIF-1α", "test": "In vitro interaction (GST pull-down) assay of OS-9 with GST-HIF-1α fusion proteins", "assay_type": "binding, human", "details": "FIG. 2A", "experimental": "(§2) To prepare GST fusion proteins, E. coli BL21-Gold(DE3)pLysS (Stratagene) was transformed with a pGEX expression vector and treated for 4 h with 0.5 mM isopropyl-D-thiogalactoside. Pelleted cells were lysed by sonication in PBS containing 1% Triton X-100 and Complete protease inhibitor cocktail (Roche). After centrifugation, supernatants were applied to glutathione-Sepharose 4B beads (Amersham Pharmiacia Biotech). GST fusion proteins were eluted with 10 mM reduced glutathione in 50 mM Tris-HCl (pH 8.0) and stored at −80° C. The concentration and purity of eluates were determined by the Bradford method and by SDS-PAGE. [^35S]methionine-labeled proteins were generated in reticulocyte lysates with plasmids encoding HA-OS-9 or FLAG-VHL using the TNT T7 coupled transcription/translation system (Promega). Ten μl of in vitro-translated ^35S-labeled protein was mixed with 4 μg of GST or GST-HIF-1α fusion protein (Mahon et al. 2001) in a final volume of 200 μof PBS-T binding buffer (Dulbecco's PBS [pH 7.4], 0.1% Tween-20). The binding reaction was performed at 4° C. for 2 h with rotation followed by the addition of […] pre-washed glutathione-Sepharose 4B beads. After 30 min of mixing on a rotator, the beads were washed three times with PBS-T. Proteins were eluted in Laemmli sample buffer and analyzed by SDS-PAGE followed by autoradiography."}, "PHD1": {"target": "T1, PHD1 (Homo sapiens, UniProt Q96KS0)", "T1 construct": "expressed in transfected cells; host or cells: 293 cells", "T1 sequence (Q96KS0 whole entry)": "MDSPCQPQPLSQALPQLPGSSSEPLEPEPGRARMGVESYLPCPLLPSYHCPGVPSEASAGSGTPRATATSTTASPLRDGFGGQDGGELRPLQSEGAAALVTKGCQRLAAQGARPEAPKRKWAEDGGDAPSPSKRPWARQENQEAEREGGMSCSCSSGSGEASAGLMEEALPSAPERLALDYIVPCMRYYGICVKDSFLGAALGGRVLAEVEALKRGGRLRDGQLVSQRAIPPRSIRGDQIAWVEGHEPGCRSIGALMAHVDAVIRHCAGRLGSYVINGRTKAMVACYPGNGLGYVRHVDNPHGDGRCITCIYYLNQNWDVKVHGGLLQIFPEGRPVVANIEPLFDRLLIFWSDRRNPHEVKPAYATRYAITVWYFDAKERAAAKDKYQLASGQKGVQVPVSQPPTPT", "test": "Co-immunoprecipitation of HA-OS-9 with PHD1 in 293 cells", "assay_type": "cell-based", "details": "anti-HA immunoprecipitates, immunoblot; FIG. 5", "experimental": "(§3) 293 cells (3×10^6 cells per […] plate) were transfected with Lipofectamine Plus and a total of 10 μg of expression vectors. After 24 h, cells were lysed with PBS/0.1% Tween-20. 400 μg of whole cell lysate (brought to a final volume of 200 μl with lysis buffer) were immunoprecipitated using anti-HA affinity matrix (Roche) followed by immunoblot assay using antibody against HIF-1α (Zhong et al. 1999), PHD 1-3 (Novus Biologicals Inc.), or HA (Roche)."}, "PHD2": {"target": "T2, PHD2 (Homo sapiens, UniProt Q9GZT9)", "T2 construct": "expressed in transfected cells; host or cells: 293 cells (whole cell lysate used as the enzyme source)", "T2 sequence (Q9GZT9 whole entry)": "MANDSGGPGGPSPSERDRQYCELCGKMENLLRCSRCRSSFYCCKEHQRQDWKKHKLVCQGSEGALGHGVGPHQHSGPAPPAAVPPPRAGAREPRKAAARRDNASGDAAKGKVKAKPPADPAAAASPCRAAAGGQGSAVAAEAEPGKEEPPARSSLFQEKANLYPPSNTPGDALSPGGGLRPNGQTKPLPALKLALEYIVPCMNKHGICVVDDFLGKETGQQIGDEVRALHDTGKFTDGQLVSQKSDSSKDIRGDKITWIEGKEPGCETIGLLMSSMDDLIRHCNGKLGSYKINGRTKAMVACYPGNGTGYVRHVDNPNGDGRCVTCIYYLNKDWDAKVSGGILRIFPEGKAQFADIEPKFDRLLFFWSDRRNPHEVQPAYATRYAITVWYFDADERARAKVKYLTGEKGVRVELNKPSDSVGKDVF", "test": "Co-immunoprecipitation of HA-OS-9 with PHD2 in 293 cells", "assay_type": "cell-based", "details": "anti-HA immunoprecipitates, immunoblot; FIG. 5", "experimental": "as §3"}, "[3]": {"system": "HIF-1α transactivation domains (residues 531-826)", "test": "GAL4-dependent reporter (pGalA) transactivation assay", "assay_type": "cell-based, human", "details": "co-transfection of OS-9 expression vector; FIG. 3B", "experimental": "as §1, with “After 24 h, the cells were exposed to 20% or 1% O2 with or without MG132 (10 μM) for 8 h and lysed in 200 μl of lysis buffer containing 50 mM Tris-Cl (pH 8.0), 150 mM NaCl, 5 mM EDTA, 0.1% SDS, 1% NP-40, 0.5% sodium deoxycholate, Complete protease inhibitor cocktail (Roche), sodium orthovanadate, and sodium vanadate (Sigma).” left out"}, "HIF-1α [4]": {"target": "HIF-1α (Homo sapiens, UniProt Q16665)", "sequence (Q16665 531-826)": "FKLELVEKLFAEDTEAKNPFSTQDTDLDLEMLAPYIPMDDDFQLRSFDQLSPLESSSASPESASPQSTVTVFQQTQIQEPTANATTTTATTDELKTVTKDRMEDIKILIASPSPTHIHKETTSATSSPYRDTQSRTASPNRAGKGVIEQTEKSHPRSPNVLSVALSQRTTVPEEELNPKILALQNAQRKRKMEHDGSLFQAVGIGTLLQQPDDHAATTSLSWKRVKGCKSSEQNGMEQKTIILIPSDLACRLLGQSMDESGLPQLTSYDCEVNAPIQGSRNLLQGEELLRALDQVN", "test": "In vitro interaction (GST pull-down) assay of OS-9 with GST-HIF-1α fusion proteins", "assay_type": "binding", "set-up": "made in house; host or cells: E. coli BL21-Gold(DE3)pLysS (GST fusion); rabbit reticulocyte lysate TNT T7 (HA-OS-9)", "details": "increasing amounts of in vitro-translated OS-9, desferrioxamine present; FIG. 6C", "experimental": "as §2"}, "[5]": {"details": "293 cells, co-transfection of OS-9, FIG. 4B"}},
  "data": [
    {"molecule": "OS-9: human OS-9 protein (667-residue isoform), HA-tagged, from expression vector or in vitro-translated (protein, left off: small tags and cut ends, human OS-9 protein (667-residue isoform), HA-tagged, from expression vector or in vitro-translated) MAAETLLSSLLGLLLLGLLLPASLTGGVGSLNLEELSEMRYGIEILPLPVMGGQSQSSDVVIVSSKYKQRYECRLPAGAIHFQREREEETPAYQGPGIPELLSPMRDAPCLLKTKDWWTYEFCYGRHIQQYHMEDSEIKGEVLYLGYYQSAFDWDDETAKASKQHRLKRYHSQTYGNGSKCDLNGRPREAEVRFLCDEGAGISGDYIDRVDEPLSCSYVLTIRTPRLCPHPLLRPPPSAAPQAILCHPSLQPEEYMAYVQRQADSKQYGDKIIEELQDLGPQVWSETKSGVAPQKMAGASPTKDDSKDSDFWKMLNEPEDQAPGGEEVPAEEQDPSPEAADSASGAPNDFQNNVQVKVIRSPADLIRFIEELKGGTKKGKPNIGQEQPVDDAAEVPQREPEKERGDPERQREMEEEEDEDEDEDEDEDERQLLGEFEKELEGILLPSDRDRLRSEVKAGMERELENIIQETEKELDPDGLKKESERDRAMLALTSTLNKLIKRLEEKQSPELVKKHKKKRVVPKKPPPSPQPTEEDPEHRVRVRVTKLRLGGPNQDLTVLEMKRENPQLKQIEGLVKELLEREGLTAAGKIEIKIVRPWAEGTEEGARWLTDEDTRNLKEIFFNILVPGAEEAQKERQRQKELESNYRRVWGSPGGEGTGDLDEFDF", "values": [
      {"measurement": "HIF-1α protein levels", "setting": "HIF-1α [1]; 293 cells co-transfected with HIF-1α and OS-9 expression vector, FIG. 3C", "value": "reduced"},
      {"measurement": "levels of HIF-1α-TM (P402A/P564A/N803A)", "setting": "HIF-1α [1]; 293 cells co-transfected with OS-9 expression vector, FIG. 4A", "value": "no effect"},
      {"measurement": "levels of FLAG-tagged HIF-1α", "setting": "HIF-1α [1]; 293 cells, increasing amounts of PHD2 expression vector, presence of OS-9, FIG. 6A", "value": "dramatically reduced"},
      {"measurement": "Induction of p2.1 reporter activity by HIF-1α", "setting": "HIF-1; [5]", "value": "significantly inhibited"},
      {"measurement": "reporter gene transcription mediated by HIF-1 heterodimers containing HIF-1α-TM", "setting": "HIF-1; [5]", "value": "neither OS-9 nor PHD2 inhibited"},
      {"measurement": "Reporter gene activity induced by hypoxia and/or HIF-1α expression vector", "setting": "HIF-1; co-transfection of OS-9 expression vector, Hep3B cells, 20% or 1% O2, FIG. 3A", "value": "dramatically inhibited"},
      {"measurement": "binding of OS-9 to GST-HIF-1α", "setting": "HIF-1α [2]; HIF-1α residues 1-329, 429-608, 531-610, and 786-826", "value": "did not bind"},
      {"measurement": "binding of OS-9 to GST-HIF-1α", "setting": "HIF-1α [2]; HIF-1α residues 531-826, 653-826, or 692-826", "value": "efficiently bound"},
      {"measurement": "interaction of OS-9 with PHD1", "setting": "PHD1", "value": "interaction"},
      {"measurement": "interaction of OS-9 with PHD2", "setting": "PHD2", "value": "interaction"},
      {"measurement": "transactivation of GAL4-dependent reporter by pGalA", "setting": "[3]", "value": "no significant inhibitory effect"},
      {"measurement": "binding of OS-9 to GST-HIF-1α (531-826)", "setting": "HIF-1α [4]", "value": "dose-dependent manner"}
    ]}
  ]
}
